Data on two substances can be found in PMC12309361.

Like-named read-outs stand apart in the source and are kept apart here.

Experiment [1] has as its target WT PolC CBM peptide (QLSLF) with flanking amino acids from PolC, fluorescein-labelled (B. subtilis). Put plainly: fluorescence polarisation; direct binding: B. subtilis DnaN in 3-fold serial dilution from 50 μM, 20 nM fluorescein-labelled peptide; 20 mM Tris-HCl pH 7.5, 100 mM NaCl, 5 mM BME, 10% glycerol, 0.1% pluronic acid F-68; fit to a 1:1 binding model.
Experiment [2] has the same target. The experiment is described as above. This is another data set of the same source.
For experiment [3], the target named is PolC CBM sequence (QLSLF) peptide with the flanking amino acids from DnaE, fluorescein-labelled (B. subtilis). The experiment is described as above.
Experiment [4] deals with Pol III alpha CBM (Escherichia coli). As to conditions: cited from earlier work.

Take “B. subtilis DnaN (sliding clamp), N-terminally His6-tagged (from UniProt P05649 1-378) (natural protein)”: the values for the Kd in experiment [1], in experiment [2] and in experiment [3] were 3.9 µM, 3.8 µM and 7.2 µM, respectively.
As to DnaN clamp (from UniProt P0A988), the dissociation constant Kd in experiment [4] is 0.8 µM.
